Laboratory results reported in patent US20250263483A1 (TRUSTEES OF COLUMBIA UNIVERSITY IN THE CITY OF NEW YORK, published 2025).

How the values were obtained:
[1] = biological target: T1, human PAG peptide (extracellular portion of human PAG) (human); assay: dose-response ELISA, immobilized human PAG, purified monoclonal antibodies (FIG. 2F)
T1 construct: The immunogen was amino acids 1-16 of human PAG; also called human PAG-1 peptide; human PAG protein
T1 peptide: MGPAGSLLGSGQMQIT
Protocol: (§1) Primary ELISA was done for screening binding of hybridoma supernatants to human, murine, and cynomolgus PAG (2 μg/mL). Second ELISA for confirmation of binding of purified monoclonal antibodies to human PAG, 96-well half area high binding ELISA plates (Corning 3690) were coated 1 μg/mL of human PAG protein in 1×TBS at room temperature for 2 hours. The plate was washed with TBS containing 0.05% Tween 20 and blocked with 2% BSA in TBS for 1 hour at room temperature. After 1 hour, the plate was washed and diluted PAG antibodies in 1×TBS were dispensed to respective wells and incubated for 1 hour at room temperature. The plate was washed and incubated with peroxidase-Affinipure F(ab′)2 goat anti-mouse IgG (Jackson Immuno Research, Cat. No. 115-006-003) at 1:5000 dilution for 1 hour at room temperature. After the plate was washed, 3, 3′, 5, 5′ tetramethyl benzidine (TMB) substrate (Biolegend, Cat. No. 421101) was added to each well. The reaction was stopped by adding 2N H2SO4. Absorbance was measured on plate reader (Biotek Synergy H1) and results calculated by A=A450 nm-A570 nm.

[2] = biological target: T2, mouse PAG, endogenous on wild-type C57BL6 splenocytes (mouse, UniProt Q3U1F9 1-429); assay: flow cytometry, non-permeabilized WT vs PAG KO mouse splenocytes (FIG. 2B)
T2 construct: whole, on cells; also called murine PAG
T2 sequence (looked up): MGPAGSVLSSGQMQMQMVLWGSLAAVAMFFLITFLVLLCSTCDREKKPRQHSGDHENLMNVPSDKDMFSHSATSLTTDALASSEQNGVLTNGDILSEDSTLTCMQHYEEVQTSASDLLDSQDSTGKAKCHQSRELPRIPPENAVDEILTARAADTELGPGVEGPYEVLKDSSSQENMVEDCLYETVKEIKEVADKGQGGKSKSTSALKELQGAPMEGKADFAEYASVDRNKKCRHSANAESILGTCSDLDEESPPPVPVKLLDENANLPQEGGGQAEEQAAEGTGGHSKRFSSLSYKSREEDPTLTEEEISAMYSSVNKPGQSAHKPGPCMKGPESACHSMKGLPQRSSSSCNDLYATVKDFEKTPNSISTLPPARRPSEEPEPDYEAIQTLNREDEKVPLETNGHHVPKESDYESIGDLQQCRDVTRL
Protocol: (§2) Non-permeabilized cells were stained with the primary antibody clones in FACS Buffer [HBSS without Ca²⁺/Mg²⁺, FBS (3%), NaN3 (0.02%), and CaCl2 (2.5 mM)], then washed and stained with fluorescently conjugated secondary antibody (goat anti-mouse, Jackson ImmunoResearch, Cat. No. 115-006-003). Stained cells were then fixed in 1% paraformaldehyde. Splenocytes were pre-treated with Fc receptor block (Biolegend, Cat. No. 422301). PAG-GFP expressing cells were fixed in 1% paraformaldehyde. Events were recorded using FACSCanto (BD), and analyzed using FlowJo software (Ver. 10.8.1).

[3] = biological target: T1, human PAG peptide (extracellular …); assay: dose-response ELISA, immobilized human PAG, purified monoclonal antibody (FIG. 2F)
Protocol: as §1

[4] = biological target: T3, PAG-GFP (full-length human PAG fused to GFP) expressed on cells (human, UniProt Q9NWQ8 1-432); assay: flow cytometry, non-permeabilized A549 cells stably expressing PAG-GFP (FIG. 7B; FIG. 2E)
T3 construct: Stably expressed in A549 cells (flow cytometry) and Jurkat T cells (microscopy); also called PAG-GFP (OE); not shown: GFP tag (peGFP-N1 / pCDH-PAG-GFP constructs)
T3 sequence: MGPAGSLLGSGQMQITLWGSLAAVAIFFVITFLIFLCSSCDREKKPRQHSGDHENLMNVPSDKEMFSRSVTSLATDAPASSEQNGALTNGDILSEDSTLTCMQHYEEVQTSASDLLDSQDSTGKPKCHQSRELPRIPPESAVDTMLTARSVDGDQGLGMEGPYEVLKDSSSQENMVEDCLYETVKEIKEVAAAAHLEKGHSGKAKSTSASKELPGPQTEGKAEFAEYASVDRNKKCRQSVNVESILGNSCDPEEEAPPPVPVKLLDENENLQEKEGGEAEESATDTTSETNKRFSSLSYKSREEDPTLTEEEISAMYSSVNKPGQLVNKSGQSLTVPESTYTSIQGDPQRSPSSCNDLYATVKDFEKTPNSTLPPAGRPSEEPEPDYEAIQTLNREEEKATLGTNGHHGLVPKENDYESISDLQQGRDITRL
Protocol: as §2

[5] = biological target: T1, human PAG peptide (extracellular …); assay: ELISA on human PAG-1 peptide (FIG. 10)

B1: anti-PAG antibody clone 8D04A (antibody, mouse IgG1, kappa, V domains shown)
VH: QIQLVQSGPELKKPGETVKISCKASGYIFTNYGMNWVKQAPGKGLKWMGWINPYTGEATYDDDFKGRFAFSLETSANTAYLQINNLKNEDTATYFCAKTGTTYWGQGTLVTVSA
VL: QIVLTQSPAIMSASPGEKVTMTCSASSSVSYMYWYQQKSGTSPKRWIYDTSKLASGVPARFSGSGSGTSYSLTINNMEAEDAATYYCQQWSSNPLTFGAGTKLELKR
notes: Mouse hybridoma monoclonal
B1: no binding [1].

B2: anti-PAG antibody clone 7M16A (antibody, mouse IgG1, kappa, V domains shown)
VH: EVQLQQSGPELVKPGASVKMSCKASGYTFTSYVMHWVKQKPGQGLEWIGYIYPYNDGTKYNEKFKGKATLTSDKSSSTAYMELSSLTSEDSAVYYCARYKYGQGFAYWGQGTRVTVSA
VL: DIQMTQSPASLSVSVGETVTITCRASENIYSNLAWYQQKQGKSPQLLVYAATNLADGVPSRFSGSGSGTQYSLKINSLQSEDFGSYYCQHFWGTPWTFGGGTKLEIKR
notes: Mouse hybridoma monoclonal, tested as hybridoma supernatant and as purified antibody
B2: binds [2]; binds [3]; binds [4].

B3: 7M-hu-1 (humanized version of 7M16A) (antibody, V domains shown)
VH: QVQLVQSGAEVKKPGASVKVSCKASGYTFTSYVMHWVRQAPGQGLEWMGYIYPYNDGTKYNEKFKGRVTMTRDTSTSTVYMELSSLRSEDTAVYYCARYKYGQGFAYWGQGTTVTVSS
VL: DIQMTQSPSSVSASVGDRVTITCRASENIYSNLAWYQQKPGKAPKLLIYAATNLADGVPSRFSGSGSGTDFTLTISSLQPEDFATYYCQHFWGTPWTFGGGTKLEIKR
B3: binds [5].
